{"source": "patent US20070292909", "proteins": {"B1": {"name": "Caspase-3 (protein)", "chain": "SGISLDNSYKMDYPEMGLCIIINNKNFHKSTGMTSRSGTDVDAANLRETFRNLKYEVRNKNDLTREEIVELMRDVSKEDHSKRSSFVCVLLSHGEEGIIFGTNGPVDLKKITNFFRGDRCRSLTGKPKLFIIQACRGTELDCGIETDSGVDDDMACHKIPVEADFLYAYSTAPGYYSWRNSKDGSWFIQSLCAMLKQYADKLEFMHILTRVNRKVATEFESFSFDATFHAKKQIPCIVSMLTKELYFYH"}}, "key": {"[1]": {"biological_target": "ECFP-(spacer) DEVD-keima 616"}, "MiCy-DEVD-mKO": {"biological_target": "T1, MiCy-DEVD-mKO", "T1 chain": "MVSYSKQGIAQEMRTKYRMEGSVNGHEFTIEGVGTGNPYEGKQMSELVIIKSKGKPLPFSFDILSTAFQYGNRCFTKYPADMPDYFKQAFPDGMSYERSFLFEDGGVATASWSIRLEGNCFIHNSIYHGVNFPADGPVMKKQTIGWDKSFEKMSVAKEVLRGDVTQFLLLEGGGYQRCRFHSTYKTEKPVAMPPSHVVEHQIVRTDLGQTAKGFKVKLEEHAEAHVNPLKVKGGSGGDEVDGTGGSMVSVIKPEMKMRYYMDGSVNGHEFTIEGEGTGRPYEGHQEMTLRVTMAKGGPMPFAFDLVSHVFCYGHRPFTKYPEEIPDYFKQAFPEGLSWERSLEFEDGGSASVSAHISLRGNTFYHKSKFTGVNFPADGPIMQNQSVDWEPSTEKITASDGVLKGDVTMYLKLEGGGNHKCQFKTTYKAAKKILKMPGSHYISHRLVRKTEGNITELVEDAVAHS"}, "[2]": {"biological_target": "keima 616-(spacer) DEVD-ECFP"}}}
{"protein": "B1", "values": [{"measurement": "amplitude of the fluorescence cross-correlation function, Gcross(0)", "setting": "[1]", "result": "A rapid decrease in Gcross(0) was observed as a result of addition of Caspase-3"}, {"measurement": "fluorescence spectrum (FRET, excitation at 440 nm) before and after the reaction with Caspase-3", "setting": "MiCy-DEVD-mKO", "result": "after the addition thereof, FRET disappeared due to the cleavage of the linker and the fluorescence peak (559 nm) of mKO thereby disappeared, so that only the fluorescence peak (495 nm) of MiCy remained"}, {"measurement": "amplitude of the fluorescence cross-correlation function, Gcross(0)", "setting": "EGFP-DEVD-mRFP1 (x2)", "result": "A decrease in Gcross(0) was observed as a result of addition of Caspase-3"}, {"measurement": "SDS-PAGE and Native-PAGE bands after the reaction with Caspase-3", "setting": "[2]", "result": "When keima 616-DEVD-ECFP was reacted with Caspase-3, the bands with the sizes of keima 616 and ECFP could be confirmed"}, {"measurement": "amplitude of the fluorescence cross-correlation function, Gcross(0)", "setting": "[2]", "result": "A rapid decrease in Gcross(0) was observed as a result of addition of Caspase-3"}]}
